This note sets out measurements from the RNAGym collection of RNA variant scans (doi:10.1073/pnas.2313332121).

B1: TPR t1 (parent)
chain: GACCAAUCUGCCCUCAGAGCUCGAGAACAUCUUCGGAUGCAGAGGAGGCAGGCUUCGGUGGCGCGAUAGCGCCAACGUCCUCAACCUCCAAUGCAUCCCACCACAUGAUGAUGCCUGAAGAGCCUUGGUUUUUUG

Variants of B1 are the subject of this data set. As to the kind of experiment: polymerase ribozyme fitness, log enrichment relative to wild type (log ratio); higher = more active; in vitro selection for triplet polymerase activity. Put shortly:
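Fitness compares each genotype's enrichment to that of the wild type on a logarithmic scale, averaging replicates with inverse-variance weights. The logarithm is base 2. Enrichment came from Illumina sequencing of input and output libraries after one triplicate round of in vitro selection, which included frozen incubation at −7 °C, of PCR-built, transcribed mutant libraries of each subunit of a heterodimeric triplet polymerase ribozyme. Only genotypes with ≥10 input reads and ≥1 read per output were kept.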
In the case of GACCAAUCUGCCCUCAGAGCUCGAGAACAUCUUCGGAUGCAGAAGAGGCGGGCUUCGGUGGCGCGAUAGCGAUAACGUCCUCAACCUCCAAUGCAUCCCACCACAUGAUAAUGCCUGAAGAGCCUUGGUUUUUUG [G44A A50G C72A C73U G110A], the “polymerase ribozyme fitness (log ratio)” value was -4.26.

For the variant GACCAAUCUGCCCUCAGAGCUCGAGAACAUCUUCGGAUGCAGUGGAGGCAGGCUUCGGUGGCGCGAUAGCGCCAACGUCCUCAACCUCCAAUGCAUCCCACCACAUGAUCAUGCCUGAAGAGCCUUGGUUUUUUG [A43U G110C], the “polymerase ribozyme fitness (log ratio)” value is -5.24.

As to GACCAAUCUGCCCUCAGAGCUCGAGAACAUCUUCGGAUGCAGUGGAGGCAGGCUUCGGUAGCGCGAUAGCGCCAACGUCCUCAACCUCCAAUGCAUCCCACCACAUGAUGAUGCCUGAAGAGCCUUGGUUUUUUG [A43U G60A], the “polymerase ribozyme fitness (log ratio)” value is -1.98. In the case of GACCAAUCUGCCCUCAGAGCUCGAGAACAUCUUCGGAUGCAGUGGAGGCAGGCUUCGGUGGCCCGAUAGCGCCAACGUCCUCAACCUCCAAUGCAUCCCACCACAUGAUGAUGCCUCAAGAGCCUUGGUUUUUUG [A43U G63C G117C], the “polymerase ribozyme fitness (log ratio)” value was -4.52. The same measure for GACCAAUCUGCCCUCAGAGCUCGAGAACAUCUUCGGAUGCAGUGGAGGCAGGCUUCGGUGGCUCGAUAGCGCCAACGUCCUCAACCUCCAAUGCAUCCCACCACAUGAUGAUGCCUGAAGAGCCUUGGUUUUUGG [A43U G63U U134G]: -3.02. The same measure for GACCAAUCUGCCCUCAGAGCUCGAGAACAUCUUCGGAUGCAGUGGAGUCAGGCUUCGGUGGCGCGAUAGCGCCAACGUCCUCAACCUCCAAUGCAUCCCACCACAUGAUGAUGCCUGAAUAGCCUUGGUUUUUUG [A43U G48U G120U]: -2.2.

Turning to GACCAAUCUGCCCUCAGAGCUCGAGAACAUCUUCGGAUGCAGUGGAGGCAGGCUUCGGUGGCGCGAUAGCGCCAACGUCCUCAACCUCCAAUGCAUCCAAGCACAUGAUAAUGCCUGAAGAGCCUUGGUUUUUUG [A43U C99A C101G G110A], the “polymerase ribozyme fitness (log ratio)” value is -7.09. Turning to GACCAAUCUGCCCUCAGAGCUCGAGAACAUCUUCGGAUGCAGAAGAGGCCGGCUUCGGUGGCACGAUAGCGCCAACGUCCUCAAACUCCAAUGCAUCCCACCACAUGAUGAUGCCUGAAGAGCCUUGGUUUUUUG [G44A A50C G63A C85A], the “polymerase ribozyme fitness (log ratio)” value is -4.52. The figure for GACCAAUCUGCCCUCAGAGCUCGAGAACAUCUUCGGAUGCAGAAGAGGCGGGCUUCGGUGGCGCGAUAGCGCUAACGUCCUCAACCUCCAAUGCAUCCCACAACAUGAUGAUGCGUGAAGAGCCUUGGUUUUUUG [G44A A50G C73U C102A C115G] is -5.62. Regarding GACCAAUCUGCCCUCAGAGCUCGAGAACAUCUUCGGAUGCAGUGCAGGUAGGCUUCGGUGUCGCGAUAGCGCCAACGUCCUCAACCUCCAAUGCAUCCCACCACAUGAUGAUGCCUGAAAAGCCUUGGUUUUUUG [A43U G45C C49U G61U G120A], the “polymerase ribozyme fitness (log ratio)” value was -1.99. As for GACCAAUCUGCCCUCAGAGCUCGAGAACAUCUUCGGAUGCAGUGGAGGCAGGCUUCGGUAGCGCGAUAGCGCCAACGUCCUCAACCUCCAAUGCAUCCCACCACAUGAUGAUGCCUGAACAGCCUUGGUUUUUUG [A43U G60A G120C], the “polymerase ribozyme fitness (log ratio)” value is -1.01. The figure for GACCAAUCUGCCCUCAGAGCUCGAGAACAUCUUCGGAUGCAGUGGAGGCAGGCUUCGGUGGCGCGAUAGCGCCAACGUCCUCAACCUCCAAUGCAUCCCACCACAUGAUGAUGCCUGAAAAGCCUUAGCUUUUUG [A43U G120A G127A U129C] is -3.11; for GACCAAUCUGCCCUCAGAGCUCGAGAACAUCUUCGGAUGCAGAAGGGGCAGACUUCGGUGGCGCGAUAGCGCCAACGUCCUCAACCUCCAAUGCAUCCCACCACAUGAUGAUGCCUGAAGAGACUUGGUUUUUUG [G44A A46G G52A C123A] it is -1.71; for GACCAAUCUGCCCUCAGAGCUCGAGAACAUCUUCGGAUGCAGUGGAGGCAGGCUUCGGUGGCGCGAUAGCGCCAACGUCCUCAACCUCCAAUGCAUCCCACCACAUGAUGAUGCCUUAAGAGCCUUGGUUUUUUG [A43U G117U] it is -3.35. The figure for GACCAAUCUGCCCUCAGAGCUCGAGAACAUCUUCGGAUGCAGUAGAGGCAGGCUUCGGUGCCGCGAUAGCGCCAACGUCCUCACCCUCCUAUGCAUCCCACUACAUGAUGAUGCCUGAAGAGUCUUGGUUUUUUG [A43U G44A G61C A84C A90U C102U C123U] is -4.59. The same measure for GACCAAUCUGCCCUCAGAGCUCGAGAACAUCUUCGGAUGCAGAAGAGGCAGGCUUCGGUGGCGCGAUAGCGCCAACGUCCUCAACCUCCAAUGCAUCCCACCACAUGAUGCUGCCUGAAGAGCCUUGGUUGUUUG [G44A A111C U131G]: -2.35; for GACCAAUCUGCCCUCAGAGCUCGAGAACAUCUUCGGAUGCAGUGGAGGCAGGCUUCGGUGGCACGAUAGCGCCAACGUCCUCAACCUCCAAUGCAUCCCACCACAUGAUGAUGCCUGAAGAGCCUUGGUUUUUUG [A43U G63A]: -2.51; for GACCAAUCUGCCCUCAGAGCUCGAGAACAUCUUCGGAUGCAGUGGAGGCAGGCUUCGGUGGCCCGAUAGCGCCAACGUCCUCAACCUCCAAUGCAUCCCACCACAUGAUGAUGCCUGAAGAGCCUUGGUUUUUUG [A43U G63C]: -2.12. With GACCAAUCUGCCCUCAGAGCUCGAGAACAUCUUCGGAUGCAGUAGAGGCAGGCUUCGGUGGCGCGAUUGAGCCAACGUCCUCAACCUCCAAUGCAUCCCACCACAUGAUGAUGCAUGAAGAGCACUGGUUUAUUG [A43U G44A A68U C70A C115A C124A U125C U132A], the “polymerase ribozyme fitness (log ratio)” value is -6.95.

On to GACCAAUCUGCCCUCAGAGCUCGAGAACAUCUUCGGAUGCAGAAGAGGCAGGCUUCGGUGGCGCGAUAGCGCCAACGUCCUCAACCUCCAAUGCAUCCCACCACAUGAUGGUGCCUGAAGAGCCUUGGUUUUUUG [G44A A111G], for which the “polymerase ribozyme fitness (log ratio)” value was -0.69. The figure for GACCAAUCUGCCCUCAGAGCUCGAGAACAUCUUCGGAUGCAGUGGAGGCAGGCUUCGGUGGCGCGAUAGCGCCAACGUCCUCAACCUCCAAUGCAUCCCACCACAUGAUGACGCCUGAUGAGCCUUGGUUUUUUG [A43U U112C A119U] is -0.989.
